# PMC4914250
# B1: p53RE oligo (dsDNA)
# DNA 1: CTGCTGAAGCTTCGAATTCCTAGACATGCCCAGACATGTCCTACTGCTGCTGCTGCTGCTGCTGCGAACATGTCCCAACATGTTGCTGCTGCTGCTGCTG
# DNA 2: CAGCAGCAGCAGCAGCAACATGTTGGGACATGTTCGCAGCAGCAGCAGCAGCAGCAGTAGGACATGTCTGGGCATGTCTAGGAATTCGAAGCTTCAGCAG
# Experiments:
# WT p53 DBD = WT p53 DBD (UniProt P04637 94-293); assay: pull-down (streptavidin beads, Western blot); DBD pull-down: streptavidin beads with biotinylated oligo, 3 h at 4 C; Figure 1A: 50 ng protein; buffer, salt and pH not in the material; ELISA per R&D kit; conditions: protein: recombinant; label: 5' biotin; annealed to complementary oligo
# WT p53 DBD, sequence (P04637 94-293): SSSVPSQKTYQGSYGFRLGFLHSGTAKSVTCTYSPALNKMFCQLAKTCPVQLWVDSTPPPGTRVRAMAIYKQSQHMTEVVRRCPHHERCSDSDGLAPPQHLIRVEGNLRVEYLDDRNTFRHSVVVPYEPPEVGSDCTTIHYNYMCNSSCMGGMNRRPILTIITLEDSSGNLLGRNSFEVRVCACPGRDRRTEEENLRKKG
# [1] = biological target: WT p53 full length (His-tagged) (UniProt P04637 1-393); assay: as above; conditions: protein: recombinant; tags: His; label: 5' biotin; annealed to complementary oligo
# WT p53 full length (His-tagged), sequence (P04637 whole entry): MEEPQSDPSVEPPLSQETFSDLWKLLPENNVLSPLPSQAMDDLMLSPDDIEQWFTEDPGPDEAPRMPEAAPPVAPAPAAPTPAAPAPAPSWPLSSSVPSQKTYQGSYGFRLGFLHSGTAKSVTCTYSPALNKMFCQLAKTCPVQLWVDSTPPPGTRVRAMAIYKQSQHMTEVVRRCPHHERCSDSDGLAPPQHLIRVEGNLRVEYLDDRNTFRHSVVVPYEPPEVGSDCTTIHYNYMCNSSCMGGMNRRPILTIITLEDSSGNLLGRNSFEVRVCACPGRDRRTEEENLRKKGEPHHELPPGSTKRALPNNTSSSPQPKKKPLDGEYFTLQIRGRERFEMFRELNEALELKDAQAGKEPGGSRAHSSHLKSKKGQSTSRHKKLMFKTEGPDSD
binder,measurement,setting,value
B1,binding result,WT p53 DBD,binds
same,binding result,[1],binds
